Assay results as given in US20090156489A1 (Genentech, published 2009).

B1: recombinant human cMet-Fc fusion protein (R&D Systems) (Fc fusion)
chain: ECKEALAKSEMNVNMKYQLPNFTAETPIQNVILHEHHIFLGATNYIYVLNEEDLQKVAEYKTGPVLEHPDCFPCQDCSSKANLSGGVWKDNINMALVVDTYYDDQLISCGSVNRGTCQRHVFPHNHTADIQSEVHCIFSPQIEEPSQCPDCVVSALGAKVLSSVKDRFINFFVGNTINSSYFPDHPLHSISVRRLKETKDGFMFLTDQSYIDVLPEFRDSYPIKYVHAFESNNFIYFLTVQRETLDAQTFHTRIIRFCSINSGLHSYMEMPLECILTEKRKKRSTKKEVFNILQAAYVSKPGAQLARQIGASLNDDILFGVFAQSKPDSAEPMDRSAMCAFPIKYVNDFFNKIVNKNNVRCLQHFYGPNHEHCFNRTLLRNSSGCEARRDEYRTEFTTALQRVDLFMGQFSEVLLTSISTFIKGDLTIANLGTSEGRFMQVVVSRSGPSTPHVNFLLDSHPVSPEVIVEHTLNQNGYTLVITGKKITKIPLNGLGCRHFQSCSQCLSAPPFVQCGWCHDKCVRSEECLSGTWTQQICLPAIYKVFPNSAPLEGGTRLTICGWDFGFRRNNKFDLKKTRVLLGNESCTLTLSESTMNTLKCTVGPAMNKHFNMSIIISNGHGTTQYSTFSYVDPVITSISPKYGPMAGGTLLTLTGNYLNSGNSRHISIGGKTCTLKSVSNSILECYTPAQTISTEFAVKLKIDLANRETSIFSYREDPIVYEIHPTKSFISGGSTITGVGKNLNSVSVPRMVINVHEAGRNFTVACQHRSNSEIICCTTPSLQQLNLQLPLKTKAFFMLDGILSKYFDLIYVHNPVFKPFEKPVMISMGNENVLEIKGNDIDPEAVKGEVLKVGNKSCENIHLHSEAVLCTVPNDLLKLNSELNIEWKQAISSTVLGKVIVQPDQNFT
notes: extracellular domain; Bought protein; the construct is not described; not shown: Fc part of the bought fusion protein, not described
B2: human Netrin-G1-his (purified Netrin-G1 protein with a C-terminus His tag) (receptor, UniProt Q9Y2I2-1 29-409, looked up, not shown: small tags and cut ends)
chain: HYDLCKTQIYTEEGKVWDYMACQPESTDMTKYLKVKLDPPDITCGDPPETFCAMGNPYMCNNECDASTPELAHPPELMFDFEGRHPSTFWQSATWKEYPKPLQVNITLSWSKTIELTDNIVITFESGRPDQMILEKSLDYGRTWQPYQYYATDCLDAFHMDPKSVKDLSQHTVLEIICTEEYSTGYTTNSKIIHFEIKDRFAFFAGPRLRNMASLYGQLDTTKKLRDFFTVTDLRIRLLRPAVGEIFVDELHLARYFYAISDIKVRGRCKCNLHATVCVYDNSKLTCECEHNTTGPDCGKCKKNYQGRPWSPGSYLPIPKGTANTCIPSISSIGTNVCDNELLHCQNGGTCHNNVRCLCPAAYTGILCEKLRCEEAGSCGS
notes: Used purified in the pull-down and as a crude preparation (1 ug/ml) for coating in the solid phase assay; also called NetrinG-his
B3: human NGL-1-Fc (extracellular domain of human NGL-1 fused to human IgG1 Fc) (Fc fusion)
chain: QTCPSVCSCSNQFSKVICVRKNLREVPDGISTNTRLLNLHENQIQIIKVNSFKHLRHLEILQLSRNHIRTIEIGAFNGLANLNTLELFDNRLTTIPNGAFVYLSKLKELWLRNNPIESIPSYAFNRIPSLRRLDLGELKRLSYISEGAFEGLSNLRYLNLAMCNLREIPNLTPLIKLDELDLSGNHLSAIRPGSFQGLMHLQKLWMIQSQIQVIERNAFDNLQSLVEINLAHNNLTLLPHDLFTPLHHLERIHLHHNPWNCNCDILWLSWWIKDMAPSNTACCARCNTPPNLKGRYIGELDQNYFTCYAPVIVEPPADLNVTEGMAAELKCRASTSLTSVSWITPNGTVMTHGAYKVRIAVLSDGTLNFTNVTVQDTGMYTCMVSNSVGNTTASATLNVTAATTTPFSYFSTVTVETMEPSQDEARTTDNNVGPTPVVDWETTNVTTSLTPQSTRSTEKTFTIPVTDINSGIPGIDEVMKTTK
notes: also called NGL-1-ECD IgG Fc fusion protein; PRO331 ECD-Fc; not shown: human IgG1 Fc region

Experiments:
[1] = molecular target: recombinant 6xHis-tagged chick Netrin-1 protein (R&D Systems) (chicken, UniProt Q90922 26-606); assay: solution binding assay, protein A bead pull-down, blot probed with anti-chicken Netrin-1
Description: (§1) Recombinant human NGL-1-Fc (a-c), human Netrin-G1-Fc (d-f) and human DCC-Fc (g-i) were used to label COS7 cells expressing human NGL-1 (a, d, g), human Netrin-G1 (b, e, h), chicken Netrin-1 (c, f, i). Specific binding of the transfected cells was evident for Netrin-G1-expressing cells labeled with NGL-1-Fc (b), for NGL-1-expressing cells labeled with Netrin-G 1-Fc (d), as well as for Netrin-1-expressing cells labeled with DCC-Fc (i). (j) The recombinant ECD-Fc fusion proteins (5 nM) indicated at the top (lanes 3-7) were incubated with human Netrin-G1-his (first row), chicken Netrin-1-his (second row) or human HGF protein (third row) in a solution binding assay. Complexes were pulled down by protein A-conjugated beads and probed with His-Probe (anti-His), antibodies to chicken netrin-1 and monoclonal antibodies to human HGF, as indicated. Direct and specific binding of NGL-1-Fc and netrin-G1-His (50 kDa) is shown in the first row. The netrin-1-His protein (75-85 kDa) binds strongly to DCC-Fc and Unc5-Fc (lanes 3 and 4, second row), extremely weakly to NGL-1-Fc (lane 5, second row), and not at all to human cMet-Fc (lane 6). HGF binds to cMet-Fc (lane 6, third row). Lane 1, directly loaded netrin-G1-His; lane 2, directly loaded netrin-1-His; lane 7, directly loaded HGF.
(§2) The question remained whether Netrin-G1 and NGL-1 directly interact with each other. […]

[2] = molecular target: B1; assay: solution binding assay, protein A bead pull-down, blot probed with HisProbe
Description: as §1, §2

[3] = molecular target: B3; assay: solid phase binding assay, Netrin-G1-his coated wells, serial dilution of NGL-1-Fc, saturation curve and Scatchard analysis
Description: (§3) The binding affinity of NGL-1 and Netrin-G1 was then evaluated by a solid phase binding assay. Crude NetrinG-his protein (1 μg/ml) was coated in microtiter wells and non-specific binding sites saturated with 0.5% BSA. Purified NGL-1-Fc protein was serially diluted and added to the coated wells for 1 hour. Signals were detected with the biotinylated anti-human IgGFc antibody, horseradish peroxidase-conjugated strepavidin and a chromogenic substrate TMB (Kirkgaard and Perry Lab). The reactions were terminated with phosphoric acid and absorbance at 450 nm was measured. Non-specific binding was determined in parallel by omitting the microtiter well coating or by incubating the wells with the irrelevant cMet-Fc fusion protein, and dissociation constants were determined using saturation curves and Scatchard analysis (FIG. 2a). […] Cell 87, 175-185. (1996)].

[4] = molecular target: T1, human NGL-1 expressed on COS7 cells (human, UniProt Q9HCJ2 43-640); assay: cell surface binding assay on transfected COS7 cells, fluorescence microscopy
T1 construct: also called PRO331; Netrin-G1 Ligand
T1 sequence: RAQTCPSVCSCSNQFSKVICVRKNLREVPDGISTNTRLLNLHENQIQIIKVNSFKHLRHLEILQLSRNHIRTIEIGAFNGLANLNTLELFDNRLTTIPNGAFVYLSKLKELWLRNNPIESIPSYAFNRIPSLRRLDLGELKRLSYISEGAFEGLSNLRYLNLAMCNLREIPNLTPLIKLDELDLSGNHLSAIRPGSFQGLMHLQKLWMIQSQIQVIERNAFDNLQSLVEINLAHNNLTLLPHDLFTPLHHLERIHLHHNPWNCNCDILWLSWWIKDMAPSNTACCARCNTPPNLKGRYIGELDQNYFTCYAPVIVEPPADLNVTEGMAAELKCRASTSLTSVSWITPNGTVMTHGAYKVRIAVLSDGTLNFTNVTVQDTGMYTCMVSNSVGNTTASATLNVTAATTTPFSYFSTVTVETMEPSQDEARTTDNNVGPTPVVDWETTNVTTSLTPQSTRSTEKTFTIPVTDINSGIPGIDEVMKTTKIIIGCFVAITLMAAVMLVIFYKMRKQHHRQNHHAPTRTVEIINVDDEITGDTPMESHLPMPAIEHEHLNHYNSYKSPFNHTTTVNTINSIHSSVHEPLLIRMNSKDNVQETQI
Description: (§4) The resultant fusion proteins were expressed and used in binding assays over a panel of ˜400 putative cell surface transmembrane or GPI-anchored cell surface human proteins that were transiently expressed in COS7 cells. Purified ECD-Fc fusion proteins (0.5 μg/ml) or the crude baculovirus lysates were added to transiently transfected COS7 cells for 1-2 hours at room temperature. After 3 rinses with cold phosphate buffered saline (PBS), the bound protein was cross-linked to the cell surface with 4% paraformaldehyde. The bound Fc fusion protein was detected by biotinylated anti-human IgGFc and R-phycoerythrin-conjugated streptavidin (Jackson Immunoresearch). Cell surface staining was visualized by fluorescent microscopy and images were taken with the Penguin 800CL digital camera system (Pixera).
(§5) Although the NGL-1 and Netrin-G1 interaction appeared to be specific within the context of the screen, the classical Netrins and their known receptors, DCC and Unc5, were not included in the screen. Thus whether NGL-1 also interacts with Netrin-1 and its receptors was determined. Using the same cell surface binding assay, NGL-1, Netrin-G1, or Netrin-1 were expressed in COS7 cells (rows in FIG. 1a-i) and their ability to bind the IgG Fe fusion protein of NGL-1, Netrin-G1, or DCC (columns in FIG. 1a-i) was determined. […]

[5] = molecular target: T2, DCC expressed on COS cells (human, UniProt P43146 26-1447); assay: cell surface binding assay on transfected COS7 cells, fluorescence microscopy (data not shown)
T2 construct: whole, on cells
Description: as §4, §5

human HGF protein = molecular target: T3, human HGF protein (human, UniProt P14210 32-728, limits assumed); assay: solution binding assay, pull-down with protein A beads, blot probed with anti-HGF (panel j)
T3 construct: also called hepatocyte growth factor
Description: as §1, §2

[6] = molecular target: B2; assay: solid phase binding assay: Netrin-G1-his coated in microtiter wells, NGL-1-Fc in solution, OD450; specific binding = total minus cMet-Fc binding
Description: as §3

T3 sequence (P14210 32-728 limits assumed): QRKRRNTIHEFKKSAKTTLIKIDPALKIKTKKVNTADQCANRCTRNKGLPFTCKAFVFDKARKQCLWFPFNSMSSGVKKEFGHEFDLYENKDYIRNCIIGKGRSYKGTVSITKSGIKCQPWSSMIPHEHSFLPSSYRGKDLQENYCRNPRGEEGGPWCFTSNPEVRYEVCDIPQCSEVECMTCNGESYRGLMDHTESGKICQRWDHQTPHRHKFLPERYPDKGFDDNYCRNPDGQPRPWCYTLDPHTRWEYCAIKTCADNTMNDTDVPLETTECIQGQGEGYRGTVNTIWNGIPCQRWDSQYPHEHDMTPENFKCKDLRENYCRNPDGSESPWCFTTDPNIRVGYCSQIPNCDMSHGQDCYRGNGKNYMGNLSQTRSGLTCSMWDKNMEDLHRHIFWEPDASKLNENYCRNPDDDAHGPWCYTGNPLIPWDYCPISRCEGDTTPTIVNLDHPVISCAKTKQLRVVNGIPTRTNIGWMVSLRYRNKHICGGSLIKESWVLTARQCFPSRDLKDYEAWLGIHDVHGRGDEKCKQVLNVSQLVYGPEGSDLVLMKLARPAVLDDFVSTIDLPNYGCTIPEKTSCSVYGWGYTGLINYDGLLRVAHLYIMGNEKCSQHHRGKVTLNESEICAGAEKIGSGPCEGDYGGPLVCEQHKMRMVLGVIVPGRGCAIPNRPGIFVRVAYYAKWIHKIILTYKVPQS
T2 sequence (P43146 26-1447): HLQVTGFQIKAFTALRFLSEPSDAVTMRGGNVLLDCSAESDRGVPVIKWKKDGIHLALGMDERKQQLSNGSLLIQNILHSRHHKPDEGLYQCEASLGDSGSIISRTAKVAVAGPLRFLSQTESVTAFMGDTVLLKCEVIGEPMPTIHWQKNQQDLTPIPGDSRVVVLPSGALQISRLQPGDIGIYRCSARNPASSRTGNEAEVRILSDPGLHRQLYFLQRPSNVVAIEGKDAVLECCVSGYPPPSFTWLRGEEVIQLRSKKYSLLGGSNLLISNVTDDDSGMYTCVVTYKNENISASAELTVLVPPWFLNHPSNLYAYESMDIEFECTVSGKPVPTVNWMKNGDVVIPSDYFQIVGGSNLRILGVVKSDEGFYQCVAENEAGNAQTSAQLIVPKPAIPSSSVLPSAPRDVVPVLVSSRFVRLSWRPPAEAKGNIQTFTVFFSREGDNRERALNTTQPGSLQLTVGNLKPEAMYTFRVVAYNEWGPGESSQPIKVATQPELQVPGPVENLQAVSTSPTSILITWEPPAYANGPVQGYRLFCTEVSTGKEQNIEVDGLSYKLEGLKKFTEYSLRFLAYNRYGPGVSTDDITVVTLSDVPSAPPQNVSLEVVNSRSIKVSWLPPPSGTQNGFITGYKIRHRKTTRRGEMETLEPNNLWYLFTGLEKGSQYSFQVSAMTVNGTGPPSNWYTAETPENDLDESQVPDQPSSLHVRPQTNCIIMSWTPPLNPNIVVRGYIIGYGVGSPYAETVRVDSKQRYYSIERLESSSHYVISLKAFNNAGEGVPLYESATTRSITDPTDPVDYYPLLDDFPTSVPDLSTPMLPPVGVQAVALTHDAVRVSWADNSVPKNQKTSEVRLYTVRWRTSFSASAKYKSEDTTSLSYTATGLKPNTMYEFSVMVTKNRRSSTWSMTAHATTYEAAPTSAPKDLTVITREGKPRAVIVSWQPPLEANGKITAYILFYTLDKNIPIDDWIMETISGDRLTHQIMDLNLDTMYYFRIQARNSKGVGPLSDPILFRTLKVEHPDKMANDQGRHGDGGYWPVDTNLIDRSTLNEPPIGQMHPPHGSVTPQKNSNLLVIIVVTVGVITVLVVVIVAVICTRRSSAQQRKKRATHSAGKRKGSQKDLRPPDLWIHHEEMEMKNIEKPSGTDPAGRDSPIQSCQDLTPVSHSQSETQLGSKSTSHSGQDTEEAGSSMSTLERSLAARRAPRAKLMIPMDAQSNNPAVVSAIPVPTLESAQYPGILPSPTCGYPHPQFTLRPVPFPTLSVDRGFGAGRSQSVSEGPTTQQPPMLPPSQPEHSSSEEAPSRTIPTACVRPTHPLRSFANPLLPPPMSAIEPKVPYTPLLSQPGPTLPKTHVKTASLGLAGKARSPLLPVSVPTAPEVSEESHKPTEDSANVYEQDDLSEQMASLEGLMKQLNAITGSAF

Binder: B1
binding result [1]: no binding

Binder: B2
binding result [2]: no binding | Kd [3]: 1.6 nM

Binder: B3
binding result [4]: no binding | binding result [5]: no binding | binding result (human HGF protein): no binding (tested: 5 nM) | EC50 (read off the curve) [6]: ~2 nM
